Biological target: T1, Bak ΔBH3, Q16611
T1 chain: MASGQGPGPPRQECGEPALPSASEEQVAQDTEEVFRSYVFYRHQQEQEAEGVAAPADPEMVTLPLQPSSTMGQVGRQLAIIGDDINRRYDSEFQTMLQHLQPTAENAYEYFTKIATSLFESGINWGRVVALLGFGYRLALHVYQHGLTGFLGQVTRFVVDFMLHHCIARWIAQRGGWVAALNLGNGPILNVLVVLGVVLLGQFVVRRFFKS
Assay: BiFC (flow cytometry)
Conditions: chain shown with the change; 6 independent experiments; read off a plot

response (Mean Venus/Mean mRFP): 0.95
B1: Bak, Q16611 H164A (protein)
chain: MASGQGPGPPRQECGEPALPSASEEQVAQDTEEVFRSYVFYRHQQEQEAEGVAAPADPEMVTLPLQPSSTMGQVGRQLAIIGDDINRRYDSEFQTMLQHLQPTAENAYEYFTKIATSLFESGINWGRVVALLGFGYRLALHVYQHGLTGFLGQVTRFVVDFMLAHCIARWIAQRGGWVAALNLGNGPILNVLVVLGVVLLGQFVVRRFFKS
